The values below come from a protein production outcome set (Wang et al. 2014).

The data set can be described thus: label from the status in PepcDB records.
Regarding “MVQSAPASEIAALILRGFDDYREQFREITDGARARFEQAQWQEAQRASAQRINLYEEKVAETVAGLRAGLADSELLDVERWPIIKSAYIAQIDLRLDDELAETWFNSIFCGLFSHDNISDGTMFVHTTRPSLRAHARAPYTRTYRPGGDLRQALEKIFDDYRFDVPYDDRERDLERIDALLHSNLPDWVCKDPDLAIELIGSVFYRNKGAYLVGRLFTPDEQWPLVFPLLHREDHGIQFDTVITDEAEVSIIFSFTRSYFMVDVPVPAELVAFLKRLLPGKHLAELYTSIGFYKQGKSEFYRALINHLATTDDRFVMAPGVRGMVMSVFTLPGFNTVFKIIKDRFNPSKSVDHATVIQKYQLVKNHDRVGRLADTQQFADFRFPVSKFEPECLAELLEVAPSTVVMEGDVVLIRHCWTERRMTPLNIYLENASEAQTREALNDYGLAIKQLAAANIFPGDMLLKNFGVTRHGRVVFYDYDEICYLTEVNFRYIPEPRFPEDEMSSEPWYSVGPNDVFPEEFPRFLFVDLNQRRLFAKLHGNLYDAKYWQGLQEQIREGKVIDVFPYRRQETPEQLLG”, the protein production result is given as “failed”.

As for “MVRADEMMDICMLAGEIMLINGAETYRVEETLERMAKAGQFRNVHSFVTTTGIFLSFEEEGAGDVMQMIRVDDRMQDLNKVTLVNQVSREFVNGEIDAAEALTKLQNIAKQPMNYSPLLLHTASGVAGGAFSYLFGGNLFDTLPAFIAGFVASMAVVHLQSYLKVRFFAEFMAAFTGGAVAILLVLIGLGENVDQVIIGTLMPLVPGIPLTNAVRDLISGDLLAGVTRGAECFVTSLSIATGIALAIALLS”, the protein production result was “failed”.

Regarding “MVRKGQMIIGAFACLIASMSWGAMFPVADHALEYIDPFYFSLIRYGAVAIMLIVLLLMKEGKQAFRLEGRGRLLVFFGTMAFTVYNVLIFLGQMLMGKSGVMVASIMEALMPMISICILWGYKRVKPKKYMITSMIIAFIGAVFVITKGDVSFFLTLKDNMFSLACIFVGVVGWVIYTMGGQTCSDWSTLRYSTLTCVFGTTVTGIITVLITSLGYVSVPSMGTISVVKYDLLFMMTLPGIVALLAWNYGVKILSSINGILFINFVPITTLVIMMMQGYQITMFDIVGTLFVIAALIRNNVCQRKEENINKKMLQEEQLRQAV”, the protein production result is reported as “failed”.

Turning to “MVRVGMRAAPRVSLEALKAALGGLKLSEAKVYLITDWQDKRDQARYALLLHTGKKDLLVPDAFGPAFPGGEEALSELVGLLLAQGARRFYEAVVSPGEMTALLDLPPEELLKRVMAIANPTDPGIYLKRAA”, the protein production result is “not failed”.

Take “MVRVLSAGPELAFRSGDVVAPARTHPLVAAAPSCPMTAAAPRERADRWPRREDLFAIAYYLAAAAVLAWAGYAAWRIGVVLAGGALQQVGVRSCRQRDASRCVNATFDRIALYVVLGQASFFLTTALAAAVTGGEQSPLILPFLGSYFVAVSVVGDRVATRGLLAATAFGAAVLALLPDAVAGPALPALQRGVLTVVSVLGVGALLAPAHAETRRKRDQVARARSEMVSDALSRAQGLEQVGAKVAHELKNPLTGVKALVQLGLRNPAEAASHERLEVVDREVTRMQEIIQNYLSFNRPLQSVNPRQVALGPLVSDTMLVLSARADEARVRLYARGDASLEADPRRLKEALLNLVANAIEATPAGGEVVVEARELSGDEVELVVRDTGRGMPPETLRRIGTPFFTTRDDGTGLGVVLARAVIVQHGGTLRYESEPGSGTKVLVTLPRAAKRSGDVARAAGG”: the protein production result was “failed”.

Regarding “MVRVPLTAEELERGQRLGELLRSARGDMSMVTVAFDAGISVETLRKIETGRIATPAFFTIAAVARVLDLSLDDVAAVVTFGPVSTS”, the protein production result is recorded as “not failed”.

Turning to “MVSAAGELGTLRQRAWAAAANVVDPEIPVLTIEDLGVLRDVTVSGDRIEVSITPTYSGCPAMTMIALEIELALAREGIAGAKITTVLSPAWTTDWMSDAGRRKLRDYGIAPPLSGGGRRALFGEQQVACPQCGSIATTVLSEFGSTSCKALWRCLDCREPFDYFKCH”, the protein production result is “failed”.

Regarding “MVSACGLIALGLDNQAARMAARLRDLAREWRALPPHAARRGAVAEQVAVLDRRHGLYSRALLLNYGALFAFVVTSLLWLGQAYWSVPPELPVLVFGLGVAMLAAMAVLVIASITLARSTIEAEAAEVLRERRAPPASGRPAPARG”, the protein production entry is given as “failed”.

In the case of “MVSANREMAVYCFDTLVSHYNNEETPPPAFEEANHPLFVTWKKIVNGGEPRLRGCIGTLEARRLISGFKDYALTSALRDRRFPPIQAKELPSLQCTVSVLTDYEDAEDYLDWEVGKHGIIIEFTEPETNTKRSATYLPEVPAHEGWTKIEAIDSLVRKAGYNGVITEAVRRRINLTRYQSTLFSMHYSEYLSYVKATRGVVGPVINGINKHAFA”, the protein production entry is reported as “failed”.

Turning to “MVSLIAKIHRRRAYLTVIAIMTFIVRLIPSRNFTLAGNDAYIHHDIVMRIAREGLGIIGHDIPSLMGLKAYAYPPLFHVMGYGLYLLFRSELVFFFISPLLGTATVLVIYKVARETFEREEVALLSAFLFSMVPSFVARTSVFIPESMGLLLTSGILYMLVKYLKTTPGYPDIDKFELKAFSNLFRGDLRYILGGLALFVIYLFTHRGWVFLLIALLLLAVTFLTPSFRKRPLEFGLIFLLIGAGIIEFITFAARFQSVPVTILGFPKWMGVLQLILGIYGASLLLRSKNPIHRFLIIWATAFMIIGTYSFRFRDPYAAIPLSLMGGYAFSEVKGRLYASKRFKSYSIMKRDVKPFLRTGIFALLVLMPLAQGAAIAYTGVTTPSPQQNAAFRWINDNTPQDAVFLSAIEDSYSLIGNTHRRDVLLWKTVYEGFMGSAPSLKENTMTRDEVSAIFQSSIPSETSYLLERNNISYIYISKSMHMKGIGLQLPVDPHFKTCFVSGDVSVYRYIKNPGIQSNYSSITVNGEDGKVVEFIEKFWNGYSQGTEPSHQGVSTL”, the protein production result is listed as “failed”.

Turning to “MVSNGSIIHVNQNQFMMLVDGGKIVDYTAEPGYFKVENSASPSLFGGQFGDALKETFSRFKFGGTTPMKQEVFYVNLQEIKGIKFGTPNPLQYFDNFYNAELFLRTFGNYSIKITDPIKFFKEACPRDAENVHIDEINEQYLSEFLEALQAAISQMSMEGERISFIPSKGTVLSKHMSEILDDSWKELRGMEVLSVGIASISYDDESKELINMRNKGAMLGDPGVREGYVQGSIARGMEAAGSNQAGAGMAFMGMGMGMNAAGGFMGQASQTNMQQMQMNQAAQRAAQGAGQQQGAGAKAAGEWFCTECGHKNTGKFCAECGTPKPQGSGCPSCGAELKAGAKFCPECGTKLLEHHHHHH”, the protein production entry is given as “not failed”.

In the case of “MVSRQEGTLYSRKRDFTVCGEEFHNSFKKSKQEDQSQSTLFNERPKSESMRSITFDFELHLHTPLPSDWQTKMSLDLELNLSPSGSPSRTTTKKYESSSIHNETVSSSKIKVLTNTSKKSIIGTGLSRSPSWLAFEGGDDNDVDHKGQEMVTTVCMKCHMLVMLCTSTPVCPNCKFMHPHDHSSTKLFKPSNLLRLLC”, the protein production entry is given as “failed”.

In the case of “MVSYPVWDSAMFAYTISSHILLVTLTLGLALLITISEFIGIKYKNRYFLTLARKASTALVINFAVGTASGIFMAVELYLFWPEFMKVVGAVAMSAFYAEVFAFLLESITLMMYVYFWDNFKNRWNHWLTSIGVLVGTGGSAALITDVNAWMNTPEGSFNIPYYLKTGIITDVNPWKVFWEPSTFAEQFHMYAVEYFAGSMMLLGYFAYKYLRSSGADERLVYSAGLKILSVIAIIDIIIVGASGSNELDTLLVVEPLKYAALEQDMVPVTYGAPEHIFGIIINGHPAYYVNLPLAQSLLAYPFTFGHGYIPGLSSYPSSVWPPSFVHDTLDLMVGFGLLMGFFWLIVVIMYFMKKDPLNKRSVLKALMFFSGMAVYTMEDGWYTAEVGRVPGIILYDKPPYYVMTIGQAASTSPVVFPLGMAIIIFYIVLIPLTLYFMAKVLKVSNIEDDLRHADDDLSKVGKSTPAGMR”, the protein production result is reported as “failed”.

For the sequence “MVTKLALLGAGRIGKVHAKAITTDSRAKLVAVVDAMAGAAEAIAREAQCKVSTIDEVLADKTIDAVIICTPTNTHADLIERFARAGKAIFCEKPVDLDVARAEACAKVVEETGAKVMLGFNRRFDPHFQAVHKAIEDGRIGKVEMVTITSRDPGPPPAEYIKVSGGIFRDMTIHDFDMARFLLGEEVESVFATGSVLVNPEIGALGDFDSASIILTTKSGRQAIISNSRRATYGYDQRIEVHGSEGSAAAENQRPVSIEIANADGYTRPPLHDFFMTRYTTAYAAEIAAFIDSIENNVSPSPSIKDGLIALKLADAALKSATSKTVVTIG”, the protein production entry was “failed”.
